Laboratory results reported in US20250075006A1 (SHANDONG SIMCERE BIOPHARMACEUTICAL, published 2025).

Legend:
[1] = target: T1, human GUCY2C protein, full length, on cells (human, UniProt P25092 24-1073); assay: FACS on HT55 tumor cells (endogenous GUCY2C), MFI
T1 construct: whole, on cells; also called endogenous tumor cells HT55

[2] = target: T1, human GUCY2C protein, full length, on …; assay: FACS on HT55 tumor cells (endogenous GUCY2C), MFI; remark: listed apart in the source
[3] = target: T1, human GUCY2C protein, full length, on …; assay: FACS on 293T-hGUCY2C cells, MFI
Protocol: (§1) Then a complete medium was added to stop the digestion, and the cells were blown into a single cell suspension. After counting, the cells were centrifuged, and the cell pellet was resuspended to 2×10⁶ cells/mL in an FACS buffer (PBS+2% fetal bovine serum), and added to a 96-well FACS reaction plate at 100 μL/well. The plate was centrifuged, and the supernatant was discarded. An antibody sample to be tested (diluted in a 5-fold gradient from a starting concentration of 100 nM) was added at 50 μL/well and uniformly mixed with the cells, and the mixture was incubated at 4° C. for 1 h. […] The results were tested and analyzed by FACS (FACS Canto™, purchased from BD) after the plate was centrifuged and washed 3 times with a PBS buffer and resuspended with 100 μL of PBS. Data analysis was performed by software (FlowJo) to obtain the mean fluorescence intensity (MFI) of the cells. Then, analysis was performed by software (GraphPad Prism8), data were fitted, and EC50 values were calculated. As shown in A-C in FIG. 14, PF1608-hIgG1 binds strongly to GUCY2C at the protein level, but weakly at the cellular level. The humanized antibodies of the present application are all capable of binding effectively to recombinant cells expressing human GUCY2C protein and substantially maintain the equivalent binding ability of the recombinant antibodies.

[4] = target: T1, human GUCY2C protein, full length, on …; assay: FACS on 293T-hGUCY2C cells, MFI; remark: listed apart in the source
Protocol: as §1, with “3-fold” for “5-fold”, “calculated.” for “calculated. As shown in A-C in FIG. 14, PF1608-hIgG1 binds strongly to GUCY2C at the protein level, but weakly at the cellular level. The humanized antibodies of the present application are all capable of binding effectively to recombinant cells expressing human GUCY2C protein and substantially maintain the equivalent binding ability of the recombinant antibodies.”

[5] = target: T1, human GUCY2C protein, full length, on …; assay: FACS on 293T-hGUCY2C cells, MFI; remark: listed apart in the source
Protocol: as §1

[6] = target: T1, human GUCY2C protein, full length, on …; assay: FACS on HT55 tumor cells (endogenous GUCY2C), MFI; remark: listed apart in the source
Protocol: as §1, with “3-fold” for “5-fold”, “calculated.” for “calculated. As shown in A-C in FIG. 14, PF1608-hIgG1 binds strongly to GUCY2C at the protein level, but weakly at the cellular level. The humanized antibodies of the present application are all capable of binding effectively to recombinant cells expressing human GUCY2C protein and substantially maintain the equivalent binding ability of the recombinant antibodies.”
The binding of the recombinant antibody to the endogenous tumor cell HT55 was detected in the same manner.

[7] = target: T1, human GUCY2C protein, full length, on …; assay: FACS on HT55 tumor cells (endogenous GUCY2C), MFI; remark: listed apart in the source
[8] = target: T2, Cyno GUCY2C ECD (his-tagged cynomolgus monkey GUCY2C protein extracellular domain fusion protein) (cynomolgus monkey, UniProt P25092 24-430 (human entry)); assay: ELISA, plate coated with monkey GUCY2C-his, OD450
T2 construct: also called monkey GUCY2C-his; monkey GUCY2C-His
T2 chain: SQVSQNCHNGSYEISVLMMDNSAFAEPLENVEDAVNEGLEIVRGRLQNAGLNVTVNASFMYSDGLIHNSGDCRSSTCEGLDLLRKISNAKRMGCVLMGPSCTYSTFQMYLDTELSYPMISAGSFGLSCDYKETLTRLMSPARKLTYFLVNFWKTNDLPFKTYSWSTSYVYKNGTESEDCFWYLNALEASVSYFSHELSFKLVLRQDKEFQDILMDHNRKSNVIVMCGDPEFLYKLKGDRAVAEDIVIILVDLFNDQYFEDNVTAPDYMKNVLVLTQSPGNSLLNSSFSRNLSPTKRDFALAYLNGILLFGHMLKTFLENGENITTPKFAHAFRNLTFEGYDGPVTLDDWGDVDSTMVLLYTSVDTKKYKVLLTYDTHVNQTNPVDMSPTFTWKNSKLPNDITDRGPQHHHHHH

[9] = target: T1, human GUCY2C protein, full length, on …; assay: FACS on 293T-hGUCY2C cells, MFI; remark: listed apart in the source
Protocol: as §1

T1 sequence (P25092 24-1073): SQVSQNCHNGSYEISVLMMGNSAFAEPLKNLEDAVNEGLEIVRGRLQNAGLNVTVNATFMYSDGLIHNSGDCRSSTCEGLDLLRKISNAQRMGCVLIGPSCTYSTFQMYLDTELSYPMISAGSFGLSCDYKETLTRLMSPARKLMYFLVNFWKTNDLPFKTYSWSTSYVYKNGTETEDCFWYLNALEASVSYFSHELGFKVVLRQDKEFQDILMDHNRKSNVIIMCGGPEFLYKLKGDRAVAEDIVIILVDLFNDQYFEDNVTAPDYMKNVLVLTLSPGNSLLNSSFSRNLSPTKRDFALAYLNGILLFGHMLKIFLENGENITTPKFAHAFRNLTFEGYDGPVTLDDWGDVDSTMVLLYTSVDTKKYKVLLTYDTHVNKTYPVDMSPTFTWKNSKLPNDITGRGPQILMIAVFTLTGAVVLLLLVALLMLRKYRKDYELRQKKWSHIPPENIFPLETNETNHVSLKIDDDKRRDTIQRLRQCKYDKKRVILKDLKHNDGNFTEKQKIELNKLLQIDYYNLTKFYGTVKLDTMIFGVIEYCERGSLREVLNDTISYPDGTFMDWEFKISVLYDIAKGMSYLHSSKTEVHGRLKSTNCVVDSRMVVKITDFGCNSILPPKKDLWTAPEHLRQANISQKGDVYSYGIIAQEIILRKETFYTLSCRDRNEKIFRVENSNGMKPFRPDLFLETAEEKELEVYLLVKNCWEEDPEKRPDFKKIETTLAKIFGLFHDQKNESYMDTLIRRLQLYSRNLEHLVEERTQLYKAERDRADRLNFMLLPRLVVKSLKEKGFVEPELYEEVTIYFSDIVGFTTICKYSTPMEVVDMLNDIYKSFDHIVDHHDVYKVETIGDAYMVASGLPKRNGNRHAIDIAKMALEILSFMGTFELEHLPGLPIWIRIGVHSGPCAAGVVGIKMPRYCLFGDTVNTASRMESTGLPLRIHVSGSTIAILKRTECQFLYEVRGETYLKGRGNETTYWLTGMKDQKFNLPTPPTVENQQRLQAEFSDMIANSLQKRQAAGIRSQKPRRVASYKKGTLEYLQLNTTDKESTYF

B1: 5F9-hIgG1 (antibody, V domains shown)
VH: QVQLQQWGAGLLKPSETLSLTCAVFGGSFSGYYWSWIRQPPGKGLEWIGEINHRGNTNDNPSLKSRVTISVDTSKNQFALKLSSVTAADTAVYYCARERGYTYGNFDHWGQGTLVTVSS
VL: EIVMTQSPATLSVSPGERATLSCRASQSVSRNLAWYQQKPGQAPRLLIYGASTRATGIPARFSGSGSGTEFTLTIGSLQSEDFAVYYCQQYKTWPRTFGQGTNVEIKR
notes: also called positive control antibody
Q: Which results are given for B1?
A: EC50 (read off the curve) [1]: ~0.3 nM; EC50 (read off the curve) [2]: ~0.3 nM; EC50 (read off the curve) [3]: ~1 nM; EC50 (read off the curve) [4]: ~0.9 nM; EC50 (read off the curve) [5]: ~1 nM; EC50 (read off the curve) [6]: ~0.3 nM; EC50 (read off the curve) [7]: ~0.3 nM; EC50 (read off the curve) [8]: ~0.03 nM; EC50 (read off the curve) [9]: ~1 nM

B2: PF1608-hIgG1 (antibody, V domains shown)
VH: EVQLVESGGGLVQPGGSLRLSCAASGFTFSSYWMHWVRQAPGKGLEWIGEIKPSNELTNVHEKFKDRFTISVDKAKNSAYLQMNSLRAEDTAVYYCTRTITTTEGYWFFDVWGQGTLVTVSS
VL: DIQLTQSPSSLSASVGDRVTITCRASESVDYYGSSLLQWYQQKPGKAPKLLIYAASKLASGVPSRFSGSGSGTDFTLTISSLQPEDFATYYCQQTRKAYTFGQGTKLEIKR
notes: also called PF1608-hlgG1; positive control antibody
Q: For B2, which “EC50 (read off the curve)” value [8] is on record?
A: ~0.05 nM
